Data taken from patent publication US20210403565A1 (BIOATLA, published 2021).
Where a chain is given by its changes, count along the chain named.

Legend:
[1] = target: T1, human CTLA4 expressed on the cell surface of CHO cells (human, UniProt P16410 36-223); test: FACS on CHO-huCTLA4 cells, pH 6.0, mean
T1 construct: whole, on cells; also called CHO-huCTLA4; huCTLA4
T1 sequence (looked up): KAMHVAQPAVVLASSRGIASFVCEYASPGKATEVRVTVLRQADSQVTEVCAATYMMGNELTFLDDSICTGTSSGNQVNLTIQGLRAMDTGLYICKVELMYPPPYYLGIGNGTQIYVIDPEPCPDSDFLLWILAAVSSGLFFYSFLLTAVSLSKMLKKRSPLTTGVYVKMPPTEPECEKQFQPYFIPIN
Protocol: (§1) The amount of antibodies bound on the cells was quantified using anti-human IgG antibody conjugated to fluorophores. EC₅₀ values at pH 6.0 and 7.4 for binding to cells were calculated using the nonlinear fit (variable slope, four parameters) model built into GraphPad Prism software (version 7.03). The expression levels of human CTLA4 or cynomolgus CTLA4 on the surface of the CHO cells were determined using a BD QuantiBRITE™ PE kit.

[2] = target: T2, cynomolgus CTLA4 expressed on the cell surface of CHO cells (cynomolgus, UniProt G7PL88 36-223); test: FACS on CHO-cynoCTLA4 cells, pH 6.0, mean
T2 construct: whole, on cells; also called CHO-cynoCTLA4
T2 sequence: T1 sequence (looked up) with S14N, I18T, L106M
Protocol: as §1

[3] = target: T3, recombinant human CTLA4 extracellular domain (human, UniProt P16410 36-161); test: SPR, human CTLA4 ECD immobilised, pH 7.4, AVG
T3 construct: extracellular domain; also called huCTLA-4
T3 sequence (looked up): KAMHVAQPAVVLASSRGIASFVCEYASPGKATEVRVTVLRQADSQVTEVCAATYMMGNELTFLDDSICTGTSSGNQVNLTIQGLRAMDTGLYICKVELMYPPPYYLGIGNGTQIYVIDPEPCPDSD
Protocol: (§2) The CTLA4 extracellular domain (human or cynomolgus) was immobilized on the surface of a sensor chip. […] The binding kinetics were calculated using a 1:1 Longmuir model built into the analysis software.

[4] = target: T3, recombinant human CTLA4 extracellular …; test: SPR, human CTLA4 ECD immobilised, pH 6.0, run 1
Protocol: as §2

[5] = target: T3, recombinant human CTLA4 extracellular …; test: SPR, human CTLA4 ECD immobilised, pH 6.0, run 2
Protocol: as §2

[6] = target: T3, recombinant human CTLA4 extracellular …; test: SPR, human CTLA4 ECD immobilised, pH 6.0, run 3
Protocol: as §2

[7] = target: T3, recombinant human CTLA4 extracellular …; test: SPR, human CTLA4 ECD immobilised, pH 7.4, run 2
Protocol: as §2

[8] = target: T3, recombinant human CTLA4 extracellular …; test: SPR, human CTLA4 ECD immobilised, pH 7.4, run 3
Protocol: as §2

[9] = target: T3, recombinant human CTLA4 extracellular …; test: ELISA, immobilised huCTLA-4, pH 6.0, mean +/- SD
Protocol: (§3) EC₅₀ values at pH 6.0 for binding to human CTLA4 were calculated using the nonlinear fit model (variable slope, four parameters) of GraphPad Prism version 7.03.

[10] = target: T3, recombinant human CTLA4 extracellular …; test: ELISA, immobilised huCTLA-4, pH 6.0, Jul. 11, 2017
Protocol: as §3

[11] = target: T3, recombinant human CTLA4 extracellular …; test: ELISA, immobilised huCTLA-4, pH 6.0, Jun. 27, 2017
Protocol: as §3

[12] = target: T3, recombinant human CTLA4 extracellular …; test: ELISA, immobilised huCTLA-4, pH 6.0, Jun. 29, 2017
Protocol: as §3

[13] = target: T4, recombinant cynomolgus CTLA4 extracellular domain (cynomolgus, UniProt G7PL88 36-161); test: ELISA, immobilised cynoCTLA-4, pH 6.0, Jun. 19, 2017; ELISA, pH 6.0, Jun. 19, 2017
T4 construct: extracellular domain; also called cynoCTLA-4; cynoCTLA4
T4 sequence: T3 sequence (looked up) with S14N, I18T, L106M

[14] = target: T4, recombinant cynomolgus CTLA4 …; test: ELISA, immobilised cynoCTLA-4, pH 6.0, Jun. 27, 2017; ELISA, pH 6.0, Jun. 27, 2017
[15] = target: T1, human CTLA4 expressed on the cell …; test: FACS, CHO cells expressing human CTLA4 (CHO-huCTLA-4), pH 6.0, MFI; no unit in the table, unit from the axis Log Antibodies [ng/ml]
Protocol: as §1
(§4) At least two independent duplicate FACS experiments were performed for each antibody using each of the cell lines. The binding activities at different concentrations of the antibodies are plotted in these figures.

[16] = target: T2, cynomolgus CTLA4 expressed on the cell …; test: FACS, CHO cells expressing cynomolgus CTLA4 (CHO-cynoCTLA-4), pH 6.0, MFI; no unit in the table, unit from the axis Log Antibodies [ng/ml]
Protocol: as §1, §4

B1: BA-087-05-19 (antibody, V domains shown)
VH: EVQLVESGGGLVQPGGSLRLSCAASGFTFSHYTMHWVRQAPGKGLEWVSFISYDGNNKYYADSVKGRFTISRDNSKNTLYLQMNSLRAEDTAVYYCARTGWLGPFDYWGQGTLVTVSS
VL: AIQLTQSPSSLSASVGDRVTITCRASQYVGSSYLAWYLQKPGQSPQLLIYGAFSRATGIPARFSGSGSGTEFTLTISSLQSEDFAVYYCQQDGSSPWTFGQGTKVEIK
notes: Detected with anti-human IgG and a molecular weight of 146 kDa was used in SPR, so it was tested as a whole IgG; also called BA-087-05-019; BA-087-05-19 (# 6972)
EC50 [1]: 0.35 µg/mL
EC50 [2]: 0.316 µg/mL
Kd [3]: 1.1 nM
koff [3]: 0.000958 s⁻¹
kon [3]: 869000 M⁻¹ s⁻¹
Kd [4]: 0.472 nM
koff [4]: 0.000631 s⁻¹
kon [4]: 1.34e+06 M⁻¹ s⁻¹
Kd [5]: 0.481 nM
koff [5]: 0.000604 s⁻¹
kon [5]: 1.26e+06 M⁻¹ s⁻¹
Kd [6]: 0.543 nM
koff [6]: 0.000598 s⁻¹
kon [6]: 1.1e+06 M⁻¹ s⁻¹
Kd [7]: 0.781 nM
koff [7]: 0.000669 s⁻¹
kon [7]: 857000 M⁻¹ s⁻¹
Kd [8]: 1.12 nM
koff [8]: 0.000943 s⁻¹
kon [8]: 844000 M⁻¹ s⁻¹
EC50 [9]: 0.00818 µg/mL
EC50 [10]: 0.00835 µg/mL
EC50 [11]: 0.00959 µg/mL
EC50 [12]: 0.00659 µg/mL
EC50 [13]: 0.0159 µg/mL
EC50 [14]: 0.0397 µg/mL
EC50 [15]: 0.247 µg/mL
EC50 [16]: 0.242 µg/mL

B2: BA-087-08-32 (antibody, V domains shown)
VH: EVQLVQSGAEVKKPGATVKISCKVSGFTFSHYTMHWIRQSPSRGLEWLGFISYDGNYKYYADSVKGRFTISRDNAKNSLYLQMNSLRAEDTAVYYCARTGWLGPFDYWGQGTLVTVSS
VL: EIVMTQSPATLSVSPGERATLSCRASQSVGSSYLAWYQQKPGKAPKLLIYGAFSRATGVPSRFSGSGSGTDFTLTISSLQPEDFATYYCQQDGSSPWTFGQGTKVEIK
notes: Detected with anti-human IgG and a molecular weight of 146 kDa was used in SPR, so it was tested as a whole IgG; also called BA-087-08-032; BA-087-08-32 (# 6978)
EC50 [1]: 0.243 µg/mL
EC50 [2]: 0.403 µg/mL
Kd [3]: 45.2 nM
koff [3]: 0.0166 s⁻¹
kon [3]: 519000 M⁻¹ s⁻¹
Kd [4]: 0.365 nM
koff [4]: 0.0012 s⁻¹
kon [4]: 3.29e+06 M⁻¹ s⁻¹
Kd [5]: 0.463 nM
koff [5]: 0.00154 s⁻¹
kon [5]: 3.32e+06 M⁻¹ s⁻¹
Kd [6]: 0.524 nM
koff [6]: 0.00214 s⁻¹
kon [6]: 4.08e+06 M⁻¹ s⁻¹
Kd [7]: 14.9 nM
Kd [8]: 68.3 nM
koff [8]: 0.0132 s⁻¹
kon [8]: 194000 M⁻¹ s⁻¹
EC50 [9]: 0.00978 µg/mL
EC50 [10]: 0.00617 µg/mL
EC50 [11]: 0.0146 µg/mL
EC50 [12]: 0.00857 µg/mL
EC50 [13]: 0.259 µg/mL
EC50 [14]: 0.292 µg/mL
EC50 [15]: 0.168 µg/mL
EC50 [16]: 0.354 µg/mL
